These sequences were tested on MS2 coat protein (assay: apparent KD of MS2 coat protein, switch ON state; designed switch direction (-1 OFF switch, 1 ON switch): -1; higher = weaker reporter binding). Conditions: FMN input: 0 or 200 uM; Eterna round: R93 (includes R88 designs).
Method in brief: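 Designed RNA switches were transcribed on-chip from Illumina sequencing clusters and titrated with SNAP-549-labelled MS2 coat protein in twofold steps from 0.7 or 1.5 nM up to 3 µM. Each step lasted 0.8–1.5 h at first and 10–20 min by the end, in 100 mM Tris-HCl pH 7.5, 80 mM KCl and 4 mM MgCl2, without or with constant ligand. Apparent KD is the median, for each design, of fits to normalised cluster binding curves.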

“AGAAAGUCAGGAUAUACAGAUAAAAAAACGAAAAAAAAUCUGUAGAAGGGACAUGAGGAUCACCCAUGUAAAGA [Mat - Exclusion 4 - Mayanna - D102]” and “AAGAACGUAGGAUAUACAUGAGGAUCACCCAUGUAAAAGAAAGAAAAGGGAAAGAAAAGUAGAAGGACGAAGAA [Usermaatre-setpenre Ramesses II]” are within 1.5-fold of each other in “apparent KD of MS2 coat protein” value: 49.4 nM for the first, 42.1 nM for the second.

“CUCUUGUGAGGAUAUAGAAGAAAAGAAGAGAAAGAAAAGAACUAGAAGGCACAUGAGGAUCACCCAUGUAAGAA [EteRNA is fun!]” and “AUAAUGUGAGGAUAUACAUGAGGAUCACCCAUGUAAUUAAAUAGGAGAGACACAAUUCGUAGAAGGUACAUUUA [JR_Exc003_Sub508]” are within 1.5-fold of each other in “apparent KD of MS2 coat protein” value: 34.3 nM for the first, 29.4 nM for the second.

“AGUCGGCGAGGAUAUACAUGAGGAUCACCCAUGUGAGAGAUAAAAGUGAGUUAGACAAGUAGAAGGCGCUGACA [JL Lego Mod 9]” and “CACAAGUCAGGAUAUUCGACAAGUAAAUCAGUAGAUCAAAAGAAGAAGGGACAUGAGGAUCACCCAUGUAAAUA [JR_Exc004_Sub402]” are within 1.5-fold of each other in “apparent KD of MS2 coat protein” value: 44.3 nM for the first, 39.1 nM for the second.

First: AAAAAACAUGAGGAUCACCCAUGUGAGGAUAUCCUAAACAAAAAAAACAAAAACAAAUGGAGAAGGCACAAAAA [Amethyst 35]
Second: AGAAAACAUGAGGAUCACCCAUGUGAGGAUAUGCGAAAAGAAAGAAAAUAAAAUAAAAGCAGAAGGUACAAAUA
The “apparent KD of MS2 coat protein” value of the first is 3.5-fold higher: 105 nM for the first, 29.9 nM for the second.

“AAAAAUGGAGGAUAUACAUGAGGAUCACCCAUGUGUAACUAUACUAAACACAAAAAAAGUAGAAGGCCAAAAAA [Gilly Gone Silly 8 - Jieux - Exclusion 3]” and “AAGAACUAAGGAUAUACAAGGAAGAAAGAAAAGAAAAGAAAACAUGAGGAUCACCCAUGUAGAAGGUAGUAGAA [EteRNA is fun!]” are within 1.5-fold of each other in “apparent KD of MS2 coat protein” value: 32.7 nM for the first, 28.8 nM for the second.

“AAUAACUGAGGAUAUACUAAAGAAAUGAAAAGAAAUAAAGAACAUGAGGAUCACCCAUGUAGAAGGCAGAAUAA [Nuya]” and “AAGAAACAAGGAUAUACAUGAGGAUCACCCAUGUAAAAGAAAGAAAGGGAAGAGAAAAGUAGAAGGUGUAAGAA [Publius Rubrius Barbarus]” are within 1.5-fold of each other in “apparent KD of MS2 coat protein” value: 32 nM for the first, 26.1 nM for the second.

“AAAACGUGAGGAUAUGCACCAAAAAAAAAAAAACGGGUACGACAUGAGGAUCACCCAUGUAGAAGGCACGAAAA [Frodo Flailing 7 - Jieux - Exclusion 2]” and “CUCUAGUCAGGAUAUACAAGAAAAGAAAAGAAAGAAAAGAAGUAGAAGGGACAUGAGGAUCACCCAUGUAAGAA [EteRNA is fun!]” are within 1.5-fold of each other in “apparent KD of MS2 coat protein” value: 56 nM for the first, 70.4 nM for the second.

“AAGAAUGCAGGAUAUACAAAAUAAAAGAAAAGAAAGAAAGAACAUGAGGAUCACCCAUGUAGAAGGGCGAAGAA [Sewadjkare Hori]” and “UCGUGGUCAGGAUAUACAUGAGGAUCACCCAUGUAAAAGAACAUAAAGGAGAGACGACGUAGAAGGGACAAAUA [Ralasoena]” are within 1.5-fold of each other in “apparent KD of MS2 coat protein” value: 44.4 nM for the first, 46.3 nM for the second.

“AAAAAGUAAGGAUAUACAAAAAUAAAAAAUUAUGAUAAAAAACAUGAGGAUCACCCAUGUAGAAGGUACGAAAA [AJ 3]” and “CAGUACUGAGGAUAUACAUGAGGAUCACCCAUGUAUCCAAGCUAGGAAACUAGCAAAUGUAGAAGGCAGUACUG [Ex3: 821]” are within 1.5-fold of each other in “apparent KD of MS2 coat protein” value: 27.5 nM for the first, 37.5 nM for the second.

Going from “AGAAAACAUGAGGAUCACCCAUGUGAGGAUAUCGAUGUCCAAGACCUGGUGCGGGACUCGAGAAGGCACUGGGA [salish99-ex1-92]” to “AACAGUACAGGAUAUACAUGAGGAUCACCCAUGUAAAAAAAGGGUGGCGUACCACAAAGUAGAAGGGUACUGGA [Moding Maslow revisited (73) 10]”, the “apparent KD of MS2 coat protein” value rises from 41.4 nM to 109 nM (2.6-fold).

“AGGCAGACAGGAUAUACUUGGGCAGCCAAUAUAAUAAUAUAACAUGAGGAUCACCCAUGUAGAAGGGUCAGAAA [JR_Exc002_Sub209]” and “AACAGGUCAGGAUAUGUGGAAAAAAUAAAAAAAAUAAAAACACAGAAGGGACAUGAGGAUCACCCAUGUAAAUA [May 22]” are within 1.5-fold of each other in “apparent KD of MS2 coat protein” value: 62.6 nM for the first, 58 nM for the second.

Compared with “AGCUAGUCAGGAUAUACGAACAUGUAAAAAGAAGUGAAGGGACAUGAGGAUCACCCAUGUAGAAGGGACUAGAA [74%, Web mod - With 3 less C's]”, “AUAGGCCUAGGAUAUACAUGAGGAUCACCCAUGUUAAUACUUCAAUCAAGAUAAAAGUGUAGAAGGAGGAAUAA [JR_Exc003_Sub306]” is 2.1-fold lower in “apparent KD of MS2 coat protein” value: 55.5 nM for the first, 26.7 nM for the second.

Going from “AAAAAUGGAGGAUAUACAUGAGGAUCACCCAUGUGUAACUAUACUAAGCGCUCCUCAGGUAGAAGGCCAAAAAA [Gilly Gone Silly 15 - Jieux - Exclusion 3]” to “GAAAAGUGAGGAUAUGUCAAAAGUCACAAAAGUGACAAAAGACAGAAGGCACAUGAGGAUCACCCAUGUGGAAG [Mat - Exaclusion 4 - Eli mod - D52]”, the “apparent KD of MS2 coat protein” value falls from 70.9 nM to 33.8 nM (2.1-fold).

“AAUAAACAUGAGGAUCACCCAUGUCAGGAUAUCCUAAAUAAAAAAAUAUAAAGAAGAAGGAGAAGGGACUAAAA [Mystem Exclusion 1]” and “GGUUGGCGAGGAUAUACAUGAGGAUCACCCAUGUGAGAGAAAAAAGUGAGGAAGAAAAGUAGAAGGCGCUGACG [salish99-ex3-14]” are within 1.5-fold of each other in “apparent KD of MS2 coat protein” value: 47.2 nM for the first, 32 nM for the second.

Compared with “AAAAAGGGAGGAUAUACAUGAGGAUCACCCAUGUAUCAGACGAAAAAGAGUCUGAAGUGUAGAAGGCCCAAAAA [Exclusion3-cac2]”, “AAAAAGCGAGGAUAUACAUGAGGAUCACCCAUGUGAAAAAAAAAAUAAUAAAUAAAAGGUAGAAGGCGCAAAAA [V1]” is 3.6-fold higher in “apparent KD of MS2 coat protein” value: 20 nM for the first, 72 nM for the second.

Going from “GUUGUGCGAGGAUAUAUGUGAGGUUUGCCUCAACAGGUAAUACAUGAGGAUCACCCAUGUAGAAGGCGCAUGAG [S1-(23.6);S2-(22.1) [87C]]” to “AAGAACGAAGGAUAUACAUGAAAGAAAGAAAAGAAAAGAAAACAUGAGGAUCACCCAUGUAGAAGGUCGUAGAA [EteRNA is fun!]”, the “apparent KD of MS2 coat protein” value falls from 67.3 nM to 26.2 nM (2.6-fold).

First: GAUAGGCGAGGAUAUACAUGAGGAUCACCCAUGUAAGUAAGCCUGGCUGAAACUGAAUGUAGAAGGCGCACAUU [Ex3Try2_Neo]
Second: AAGAAGGCAGGAUAUACAUGAGGAUCACCCAUGUAAAAGAAAGAAGGGAAAGAGAAAAGUAGAAGGGCCAAGAA [Hedjkheperre-setpenre Takelot II]
The “apparent KD of MS2 coat protein” value of the first is 2.7-fold lower: 16.2 nM for the first, 43.8 nM for the second.

“ACGUAGUCAGGAUAUACGAACAUGUCAAAAGACGUGAAGGGACAUGAGGAUCACCCAUGUAGAAGGGACUACGA [Mat - Exclusion 2 - JL mod - D5]” and “AGUUGGCGAGGAUAUACAUGAGGAUCACCCAUGUGAGAGAAAAAAGUGAGAAAGAAAAGUAGAAGGCGCUGACC [salish99-ex3-07]” are within 1.5-fold of each other in “apparent KD of MS2 coat protein” value: 43.1 nM for the first, 58.3 nM for the second.

First: AAAAAUGCAGGAUAUACAUGAGGAUCACCCAUGUUAGACCUGAAAAAAGGGAAAGAAAGUAGAAGGGCAUAAAA [Ex 3 May 30]
Second: GAAAAGUGAGGAUAUGUCAAAAGUCACAAAAGUGACAAAAGACAGAAGGCACAUGAGGAUCACCCAUGUGGGAA [Mat - Exaclusion 4 - Eli mod - D50]
The “apparent KD of MS2 coat protein” value of the first is 4.6-fold lower: 12.7 nM for the first, 58.5 nM for the second.

“AACAAGUGAGGAUAUGAAAAUACAACAAACAAACAACUACAUCAGAAGGCACAUGAGGAUCACCCAUGUAAAAC [JR_Exc004_Sub1204]” and “AACUGACAUGAGGAUCACCCAUGUCAGGAUAUGACUUCAAAAAAAAAAAAAAAUGAUGUCAGAAGGGACAUGAA [Design 62: Sub-opt L]” are within 1.5-fold of each other in “apparent KD of MS2 coat protein” value: 19 nM for the first, 24.4 nM for the second.

Compared with “AACAGUACAGGAUAUACAUGAGGAUCACCCAUGUAAAGGGAAUAAAACAAAAAAAAAUGUAGAAGGGUACUGGA [Mat - Exclusion 3 - Eli mod - D66]”, “AAGAAUCGAGGAUAUACAUGAAAGAAAGAAAAGAAAAGAAAACAUGAGGAUCACCCAUGUAGAAGGCGAUAGAA [EteRNA is fun!]” is 3.5-fold lower in “apparent KD of MS2 coat protein” value: 75.1 nM for the first, 21.3 nM for the second.

Compared with “AAGAAACAUGAGGAUCACCCAUGUGAGGAUAUACAAGAAAGAAAGAAAGAAAGAAGAAGUAGAAGGCACAAAGG [Gaius Valerius]”, “AAAAAGGAAGGAUAUACGAACAUGUCGAAAGACGUGAAGGGACAUGAGGAUCACCCAUGUAGAAGGUCCAAAAA [Mat - Exclusion 2 - JL mod - D79]” is 1.5-fold higher in “apparent KD of MS2 coat protein” value: 31.4 nM for the first, 47.2 nM for the second.

For “AAAAAGUAAGGAUAUAUAAAAAUAAAAAAUUAUGAUAAAAAACAUGAGGAUCACCCAUGUAGAAGGUACGAAAA [AJ 2]”, the “apparent KD of MS2 coat protein” value was 26.2 nM.

Source: the supplement of paper PMC9170038
